Results: paper PMC4371794
Blank lines part the entries; values can stand above or below the substance they belong to.

Biological target: R499D-quad-PDE4D5
Experiment: yeast two-hybrid, quantitative β-galactosidase assay
Details: parent: est. 18, read off a plot

Substance: PDE4D5 (wild-type, full-length; "long") (from UniProt Q08499-6) binder:R173A; binder:N175A; target:R173A; target:N174A; target:N175A; target:E228A; target:T229A; target:L230A; target:L306A; target:M307A; target:H308A; target:K323A; target:T324A; target:E325A; target:R499D
- response (bar labelled DD1 sequence ANA): 0.9 arbitrary

Substance: PDE4D5 (wild-type, full-length; "long") (from UniProt Q08499-6) binder:R173A; target:R173A; target:N174A; target:N175A; target:E228A; target:T229A; target:L230A; target:L306A; target:M307A; target:H308A; target:K323A; target:T324A; target:E325A; target:R499D
- response (bar labelled DD1 sequence ANN): 5.4 arbitrary

Substance: PDE4D5 (wild-type, full-length; "long") (from UniProt Q08499-6) binder:N174A; binder:N175A; target:R173A; target:N174A; target:N175A; target:E228A; target:T229A; target:L230A; target:L306A; target:M307A; target:H308A; target:K323A; target:T324A; target:E325A; target:R499D
- response (bar labelled DD1 sequence RAA): 7.1 arbitrary

The next lines start with the values.

- response (bar labelled DD1 sequence RNA): 5.1 arbitrary
Substance: PDE4D5 (wild-type, full-length; "long") (from UniProt Q08499-6) binder:N175A; target:R173A; target:N174A; target:N175A; target:E228A; target:T229A; target:L230A; target:L306A; target:M307A; target:H308A; target:K323A; target:T324A; target:E325A; target:R499D

- response (bar labelled DD1 sequence RAN): 1.9 arbitrary
Substance: PDE4D5 (wild-type, full-length; "long") (from UniProt Q08499-6) binder:N174A; target:R173A; target:N174A; target:N175A; target:E228A; target:T229A; target:L230A; target:L306A; target:M307A; target:H308A; target:K323A; target:T324A; target:E325A; target:R499D

- response (bar labelled DD1 sequence AAA): 1.1 arbitrary
Substance: PDE4D5 (wild-type, full-length; "long") (from UniProt Q08499-6) binder:R173A; binder:N174A; binder:N175A; target:R173A; target:N174A; target:N175A; target:E228A; target:T229A; target:L230A; target:L306A; target:M307A; target:H308A; target:K323A; target:T324A; target:E325A; target:R499D
